{"source": "patent US20190336574A1", "about": "(TRUSTEES OF PRINCETON UNIVERSITY, published 2019)", "key": {"[1]": {"target": "T1, HA-SND1, full-length human, wild type (human, UniProt Q7KZF4 1-910)", "T1 sequence": "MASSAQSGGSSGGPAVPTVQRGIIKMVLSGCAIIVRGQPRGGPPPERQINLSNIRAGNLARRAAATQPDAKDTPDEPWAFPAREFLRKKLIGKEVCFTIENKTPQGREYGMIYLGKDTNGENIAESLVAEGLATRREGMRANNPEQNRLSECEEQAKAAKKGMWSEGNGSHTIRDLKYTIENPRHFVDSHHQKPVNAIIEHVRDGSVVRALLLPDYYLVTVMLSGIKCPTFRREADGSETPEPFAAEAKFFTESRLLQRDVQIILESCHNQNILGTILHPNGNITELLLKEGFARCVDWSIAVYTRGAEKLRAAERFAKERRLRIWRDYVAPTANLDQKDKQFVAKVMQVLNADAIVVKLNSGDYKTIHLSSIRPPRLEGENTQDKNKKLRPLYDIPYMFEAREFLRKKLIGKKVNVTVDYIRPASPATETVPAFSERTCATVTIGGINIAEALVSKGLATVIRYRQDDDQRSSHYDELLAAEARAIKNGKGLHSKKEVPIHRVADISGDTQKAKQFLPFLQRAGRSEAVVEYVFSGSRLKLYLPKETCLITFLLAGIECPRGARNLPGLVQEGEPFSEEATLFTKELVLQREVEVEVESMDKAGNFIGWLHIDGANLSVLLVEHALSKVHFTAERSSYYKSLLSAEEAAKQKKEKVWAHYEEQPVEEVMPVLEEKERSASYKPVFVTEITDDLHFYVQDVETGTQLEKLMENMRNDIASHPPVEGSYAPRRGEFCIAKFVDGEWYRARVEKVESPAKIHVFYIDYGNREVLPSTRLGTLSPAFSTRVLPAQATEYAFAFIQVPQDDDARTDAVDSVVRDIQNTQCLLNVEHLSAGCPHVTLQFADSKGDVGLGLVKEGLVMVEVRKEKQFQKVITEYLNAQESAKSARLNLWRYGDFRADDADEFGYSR", "assay": "cell-based or functional assay"}, "[2]": {"target": "human AGO2 (ectopically expressed in HEK293T cells) (human, UniProt Q9UKV8 1-859)", "sequence (Q9UKV8 whole entry, the tested form may be a part)": "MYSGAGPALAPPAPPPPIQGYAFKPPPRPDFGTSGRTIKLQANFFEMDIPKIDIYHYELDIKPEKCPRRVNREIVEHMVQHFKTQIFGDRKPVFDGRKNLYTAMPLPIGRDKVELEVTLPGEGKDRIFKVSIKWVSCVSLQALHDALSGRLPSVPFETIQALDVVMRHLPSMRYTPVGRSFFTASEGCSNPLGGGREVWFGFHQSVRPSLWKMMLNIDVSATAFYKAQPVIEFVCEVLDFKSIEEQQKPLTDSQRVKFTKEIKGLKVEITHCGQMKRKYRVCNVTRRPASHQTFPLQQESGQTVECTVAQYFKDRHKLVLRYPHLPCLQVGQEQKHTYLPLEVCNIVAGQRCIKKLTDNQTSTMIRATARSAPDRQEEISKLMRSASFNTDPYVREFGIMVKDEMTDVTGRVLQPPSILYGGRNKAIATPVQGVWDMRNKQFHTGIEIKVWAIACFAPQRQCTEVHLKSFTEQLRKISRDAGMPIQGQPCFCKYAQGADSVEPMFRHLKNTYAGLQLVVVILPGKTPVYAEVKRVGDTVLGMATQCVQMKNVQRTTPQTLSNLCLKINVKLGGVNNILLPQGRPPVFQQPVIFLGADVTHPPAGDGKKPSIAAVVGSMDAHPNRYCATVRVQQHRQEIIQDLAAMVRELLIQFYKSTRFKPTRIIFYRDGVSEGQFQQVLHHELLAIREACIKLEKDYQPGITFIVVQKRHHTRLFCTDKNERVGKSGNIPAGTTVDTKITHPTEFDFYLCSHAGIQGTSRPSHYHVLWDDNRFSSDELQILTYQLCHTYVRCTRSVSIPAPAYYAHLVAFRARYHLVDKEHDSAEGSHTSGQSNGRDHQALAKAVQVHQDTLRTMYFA", "assay": "anti-Myc co-IP from HEK293T lysate (HA-SND1 and FLAG-AGO2 co-expressed), western blot", "text": "Two putative nuclear localization signals are residues 432-451 for NLS2 and residues 561-580 for NLS3. […] (FIG. 7B) Pulldown of His6-SND1ΔC by GST-tagged MTDH fragments with indicated boundaries. The bound proteins were examined by SDS-PAGE and visualized by Coomassie blue staining. […] For (FIG. 7B) and (FIG. 7C), 1/10 of the His6-SND1ΔC input was shown, and GST alone was used as a negative control. Representative results of 3 independent experiments are shown. (FIG. 7D, FIG. 7E) Lysates from HEK293T cells expressing the indicated ectopic human SND1, AGO2 or MTDH were immunoprecipitated with anti-Myc and immunoblotted with the indicated antibodies.\nImmunoprecipitation and western blot For immunoprecipitation (IP) experiments, cultured cells were washed in cold PBS and lysed in lysis buffer (20 mM Tris pH 7.4, 0.15 M NaCl, 1 mM EDTA, 1 mM EGTA, 1% Tx-100, 0.0025 M Na2P2O7, 1 mM α-glycerolphosphate, 1 mM Na3VO4, and 1 mM NaF) with an EDTA-free protease inhibitor mixture (Roche Applied Science) and PMSF. Cell lysates were then incubated on ice for 10 min, centrifuged, and precleared by incubating with protein A/G beads (Santa Cruz Biotechnology) for 1 h at 4° C. For IP bead preparation, 30 μl of protein A/G beads were incubated with 5 μg of antibodies for 2 h at 4° C. […]"}}, "data": [{"binder": "Myc-MTDH, full-length human, wild type (other, Full-length, Myc-tagged; Expressed in HEK293T cells, tested in lysate; also called Myc-tagged MTDH; WT Myc-MTDH) MAARSWQDELAQQAEEGSARLREMLSVGLGFLRTELGLDLGLEPKRYPGWVILVGTGALGLLLLFLLGYGWAAACAGSRKKRRSPPRKREEAAAVPAAAPDDLALLKNLRSEEQKKKNRKKLSEKPKPNGRTVEVAEGEAVRTPQSVTAKQPPEIDKKNEKSKKNKKKSKSDAKAVQNSSRHDGKEVDEGAWETKISHREKRQQRKRDKVLTDSGSLDSTIPGIENTITVTTEQLTTASFPVGSKKNKGDSHLNVQVSNFKSGKGDSTLQVSSGLNENLTVNGGGWNEKSVKLSSQISAGEEKWNSVSPASAGKRKAEPSAWSQDTGDANTNGKDWGRSWSDRSIFSGIGSTAEPVSQSTTSDYQWDVSRNQPYIDDEWSGLNGLSSADPNSDWNAPAEEWGNWVDEERASLLKSQEPIPDDQKVSDDDKEKGEGALPTGKSKKKKKKKKKQGEDNSTAQDTEELEKEIREDLPVNTSKTRPKQEKAFSLKTISTSDPAEVLVKNSQPIKTLPPATSTEPSVILSKSDSDKSSSQVPPILQETDKSKSNTKQNSVPPSQTKSETSWESPKQIKKKKKARRET", "values": [{"measurement": "half-life of HA-SND1 in HEK293T cells at 45° C (heat shock)", "setting": "[1]", "result": "> 3", "unit": "h"}, {"measurement": "binding result", "setting": "[2]", "result": "binds"}]}]}
